What was measured:
[1] = target: KGFR-HFc fusion protein (construct not specified); experiment: binding of 125I-KGF to KGFR-HFc in solution, capture on Gamma Bind G
[2] = target: keratinocyte growth factor receptor (KGFR) (UniProt P21803); experiment: competition with 125I-KGF on 32D cells expressing KGFR
[3] = target: keratinocyte growth factor receptor (KGFR) (UniProt P21803); experiment: cell-based or functional assay

B1: keratinocyte growth factor (KGF) (ligand, human, UniProt P21781 32-194, looked up)
chain: CNDMTPEQMATNVNCSSPERHTRSYDYMEGGDIRVRRLFCRTQWYLRIDKRGKVKGTQEMKNNYNIMEIRTVAVGIVAIKGVESEFYLAMNKEGKLYAKKECNEDCNFKELILENHYNTYASAKWTHNGGEMFVALNQKGIPVRGKKTKKEQKTAHFLPMAIT
ligand concentration at which saturable binding was achieved [1]: 15 to 25 ng/mL | Kd [2]: 0.13 nM | half-maximal stimulation of 3H-thymidine uptake in BALB/MK cells [3]: 10 pM

From patent publication US6403769
